In PMC10450202, “Updated protein domain annotation of the PARP protein family sheds new light on biological function”:

How the values were obtained:
[1] = target: PARP1 full-length (human, UniProt P09874 2-1014, V762A); test: NMR; 35.5 uM protein, 40 uM DNA; 15N-1H TROSY, 25 C; EMSA: 20 mM HEPES-KOH pH 7.6, 5 mM MgCl2, 1 mM DTT, 20% glycerol, 1 h room temperature, 6% native PAGE; NMR: 10 mM sodium phosphate, 222 mM NaCl, 2.7 mM KCl, 2; conditions: protein: recombinant; tags: N-terminal His6 (MKHHHHHHKMQ); dumbbell: two hairpins, mimics single-strand break
[2] = target: T1, PARP14 WWE-ART (human, UniProt Q460N5 1459-1801); test: EMSA; 0.5 uM RNA, 1-5 uM protein, 5 mM Mg2+; EMSA: 20 mM HEPES-KOH pH 7.6, 5 mM MgCl2, 1 mM DTT, 20% glycerol, 1 h room temperature, 6% native PAGE; NMR: 10 mM sodium phosphate, 222 mM NaCl, 2.7 mM KCl, 2; conditions: protein: recombinant; label: 5' Cy3; single strand
T1 sequence: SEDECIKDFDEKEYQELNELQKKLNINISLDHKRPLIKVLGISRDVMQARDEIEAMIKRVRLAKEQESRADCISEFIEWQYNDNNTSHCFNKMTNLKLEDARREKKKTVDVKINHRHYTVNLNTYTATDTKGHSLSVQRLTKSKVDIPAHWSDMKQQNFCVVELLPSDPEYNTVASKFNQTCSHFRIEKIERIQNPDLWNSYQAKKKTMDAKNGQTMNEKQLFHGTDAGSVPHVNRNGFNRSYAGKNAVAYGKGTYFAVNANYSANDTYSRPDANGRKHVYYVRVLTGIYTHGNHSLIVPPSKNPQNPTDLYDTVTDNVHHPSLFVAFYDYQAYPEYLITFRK

[3] = target: T2, PARP14 KH8-WWE-ART (human, UniProt Q460N5 1453-1801); test: EMSA; 0.5 uM RNA, 1-5 uM protein, 5 mM Mg2+; possible slight nuclease contamination; EMSA: 20 mM HEPES-KOH pH 7.6, 5 mM MgCl2, 1 mM DTT, 20% glycerol, 1 h room temperature, 6% native PAGE; NMR: 10 mM sodium phosphate, 222 mM NaCl, 2.7 mM KCl, 2; conditions: protein: recombinant; label: 5' Cy3; single strand
T2 sequence: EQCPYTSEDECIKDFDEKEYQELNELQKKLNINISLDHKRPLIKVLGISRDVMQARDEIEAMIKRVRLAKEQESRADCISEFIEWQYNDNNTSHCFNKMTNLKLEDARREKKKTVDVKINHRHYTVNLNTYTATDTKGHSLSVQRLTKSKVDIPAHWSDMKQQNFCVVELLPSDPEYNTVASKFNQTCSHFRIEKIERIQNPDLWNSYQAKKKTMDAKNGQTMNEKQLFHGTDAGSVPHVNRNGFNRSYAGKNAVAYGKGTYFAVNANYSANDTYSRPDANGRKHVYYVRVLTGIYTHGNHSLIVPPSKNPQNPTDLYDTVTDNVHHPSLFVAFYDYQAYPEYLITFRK

[4] = target: T3, PARP14 KH1-KH2 (human, UniProt Q460N5 316-468); test: EMSA; 0.5 uM RNA, 1-5 uM protein, 5 mM Mg2+; efficient binding at micromolar concentrations; EMSA: 20 mM HEPES-KOH pH 7.6, 5 mM MgCl2, 1 mM DTT, 20% glycerol, 1 h room temperature, 6% native PAGE; NMR: 10 mM sodium phosphate, 222 mM NaCl, 2.7 mM KCl, 2; conditions: protein: recombinant; label: 5' Cy3; single strand
T3 sequence: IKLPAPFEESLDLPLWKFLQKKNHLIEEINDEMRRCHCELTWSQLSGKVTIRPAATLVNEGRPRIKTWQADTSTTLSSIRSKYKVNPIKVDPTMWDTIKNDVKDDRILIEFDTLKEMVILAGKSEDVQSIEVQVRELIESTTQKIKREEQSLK

PARP1 full-length, sequence (P09874 2-1014 V762A): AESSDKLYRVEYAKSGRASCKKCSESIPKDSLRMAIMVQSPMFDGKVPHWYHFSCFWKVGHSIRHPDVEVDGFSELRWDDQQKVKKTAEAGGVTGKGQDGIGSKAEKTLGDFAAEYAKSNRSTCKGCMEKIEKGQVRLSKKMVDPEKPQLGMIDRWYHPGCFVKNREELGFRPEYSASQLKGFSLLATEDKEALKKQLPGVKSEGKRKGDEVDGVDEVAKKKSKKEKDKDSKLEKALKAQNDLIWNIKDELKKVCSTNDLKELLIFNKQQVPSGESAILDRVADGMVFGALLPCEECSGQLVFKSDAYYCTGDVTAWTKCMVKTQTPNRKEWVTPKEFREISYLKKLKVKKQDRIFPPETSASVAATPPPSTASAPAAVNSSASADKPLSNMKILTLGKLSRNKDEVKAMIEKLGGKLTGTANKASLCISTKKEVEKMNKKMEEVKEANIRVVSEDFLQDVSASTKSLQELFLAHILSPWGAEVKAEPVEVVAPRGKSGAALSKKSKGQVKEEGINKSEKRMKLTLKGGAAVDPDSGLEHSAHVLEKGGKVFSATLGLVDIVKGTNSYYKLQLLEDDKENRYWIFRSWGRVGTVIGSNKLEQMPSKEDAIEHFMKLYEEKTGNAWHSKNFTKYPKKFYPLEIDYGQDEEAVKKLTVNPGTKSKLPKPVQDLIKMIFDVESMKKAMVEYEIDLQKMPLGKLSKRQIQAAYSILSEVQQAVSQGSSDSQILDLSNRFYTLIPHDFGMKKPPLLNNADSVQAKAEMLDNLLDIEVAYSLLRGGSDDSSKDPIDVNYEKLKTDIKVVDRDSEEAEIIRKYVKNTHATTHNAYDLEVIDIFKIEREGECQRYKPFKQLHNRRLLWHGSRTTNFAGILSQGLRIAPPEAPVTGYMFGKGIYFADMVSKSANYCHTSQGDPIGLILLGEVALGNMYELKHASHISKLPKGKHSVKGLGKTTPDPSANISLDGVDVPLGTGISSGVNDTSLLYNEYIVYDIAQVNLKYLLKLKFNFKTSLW

GCTGGCTTCGTAAGAAGCCAGCTCGCGGTCAGCTTGCTGACCGCG (structured_DNA, 5' phosphate) [45-nt DNA dumbbell]: binds [1].

GUGGCGCGGAGACUUAGAGAA (ssRNA) [E21 RNA]: no binding [2]; binds [3]; binds [4].
